Tests used:
Experiment in all cases: IEDB peptide-MHC binding, purified MHC/competitive/radioactivity; filed as Kd, often an IC50 or EC50 that approximates it; ≥ and ≤ were set here for values at or beyond the usual limits of such assays
[1] = biological target: HLA-A*31:01
[2] = biological target: HLA-A*68:01
[3] = biological target: HLA-A*11:01
[4] = biological target: HLA-A*33:01
[5] = biological target: HLA-A*03:01
[6] = source organism: Vaccinia virus Copenhagen
[7] = source organism: SARS coronavirus Tor2
[8] = source organism: Mammarenavirus juninense
[9] = source organism: Vaccinia virus WR
[10] = source organism: Mammarenavirus whitewaterense
[11] = source organism: Dengue virus 2 Jamaica/1409/1983
[12] = source organism: Lassa virus Josiah
[13] = source organism: Dengue virus 2 Peru/IQT2913/1996
[14] = source organism: Dengue virus 1 Brazil/97-11/1997
[15] = source organism: Mammarenavirus guanaritoense
[16] = source organism: Lymphocytic choriomeningitis virus (strain Armstrong)

Sequence CQLMYALEPR has a Kd [1, 6] of 1.05 µM, a Kd [2, 6] of 0.00765 µM and a Kd [3, 6] of 0.0392 µM. It also gave a Kd [4, 6] of 0.0144 µM and a Kd [5, 6] of 0.058 µM.

LILCFTIKR gave a Kd [1, 7] of 9.01 µM, a Kd [2, 7] of 1.41 µM and a Kd [3, 7] of 0.231 µM. The Kd [4, 7] was 7.03 µM and the Kd [5, 7] was 1.4 µM.

Work on TVFFTASLFL yielded a Kd [1, 8] of 7.22 µM, a Kd [2, 8] of 0.901 µM and a Kd [3, 8] of 0.482 µM. The Kd [4, 8] was ≥ 70 µM and the Kd [5, 8] was 1.33 µM.

VLFVKKMLPK was tested, and the Kd [1, 9] was 1.73 µM, the Kd [2, 9] was 2.35 µM and the Kd [3, 9] was 0.012 µM. For the same sequence, the Kd [4, 9] was 13.5 µM and the Kd [5, 9] was 0.00721 µM.

For LTQIFEVYWY, the Kd [1, 9] was 0.934 µM, the Kd [2, 9] was 0.936 µM and the Kd [3, 9] was 0.348 µM. It also gave a Kd [4, 9] of 1.26 µM and a Kd [5, 9] of 0.99 µM.

VAFELWAKR showed a Kd [1, 7] of 0.0769 µM, a Kd [2, 7] of 0.0234 µM and a Kd [3, 7] of 3.27 µM. For the same sequence, the Kd [4, 7] was 0.052 µM and the Kd [5, 7] was 9.44 µM.

With VYTQLCDHR the Kd ([4]; source organism: Dengue virus 3 Martinique/1243/1999) was 1.9 µM.

In the case of SICSTMTNR, the Kd [1, 7] is reported as 0.00108 µM, the Kd [2, 7] is reported as 0.0464 µM and the Kd [3, 7] is reported as 0.013 µM. The Kd [4, 7] was 0.042 µM and the Kd [5, 7] was 0.864 µM.

ITDNGPMPY was tested, and the Kd [1, 9] was 1.2 µM, the Kd [2, 9] was 2.47 µM and the Kd [3, 9] was 0.00731 µM. The Kd [4, 9] was 1.6 µM and the Kd [5, 9] was 5.02 µM.

NSCSIGNVTR gave a Kd [1, 9] of 0.0341 µM, a Kd [2, 9] of 0.00673 µM and a Kd [3, 9] of 0.89 µM. The Kd [4, 9] was 0.0161 µM and the Kd [5, 9] was ≥ 70.1 µM.

For RNPYENVLYK, the Kd [1, 10] was ≥ 28.8 µM, the Kd [2, 10] was 3.49 µM and the Kd [3, 10] was 1.5 µM. The Kd [4, 10] was ≥ 70 µM and the Kd [5, 10] was 2.31 µM.

With WVLAYMLFTK the Kd [1, 7] was 1.26 µM, the Kd [2, 7] was 0.104 µM and the Kd [3, 7] was 0.0327 µM. The Kd [4, 7] was 3.95 µM and the Kd [5, 7] was 0.024 µM.

For QLMYALEPR, the Kd [1, 6] was 12.8 µM, the Kd [2, 6] was 2.95 µM and the Kd [3, 6] was 2.46 µM. It also gave a Kd [4, 6] of 17.3 µM and a Kd [5, 6] of 15.2 µM.

In the case of TLITGNMSFR, the Kd [2, 11] is reported as 0.0123 µM and the Kd [4, 11] is reported as 0.289 µM.

MLQKEYMER gave a Kd [1, 12] of 0.1 µM, a Kd [2, 12] of 0.0333 µM and a Kd [3, 12] of 1.36 µM. For the same sequence, the Kd [4, 12] was 0.193 µM and the Kd [5, 12] was 11 µM.

LLHCVTESYK gave a Kd [1, 9] of 0.207 µM, a Kd [2, 9] of 0.0236 µM and a Kd [3, 9] of 0.128 µM. It also gave a Kd [4, 9] of 3.27 µM and a Kd [5, 9] of 0.0147 µM.

Sequence AFSLDVSEK has a Kd [1, 7] of 12.3 µM, a Kd [2, 7] of 6.74 µM and a Kd [3, 7] of 3.55 µM. For the same sequence, the Kd [4, 7] was ≥ 77.7 µM and the Kd [5, 7] was 12.1 µM.

ISIISIRPR gave a Kd [1, 9] of 0.00369 µM, a Kd [2, 9] of 0.0434 µM and a Kd [3, 9] of 0.263 µM. For the same sequence, the Kd [4, 9] was 0.701 µM and the Kd [5, 9] was ≥ 24.1 µM.

SIPISELSR was tested, and the Kd [1, 9] was 3.72 µM, the Kd [2, 9] was 0.0112 µM and the Kd [3, 9] was 0.125 µM. The Kd [4, 9] was 9.74 µM and the Kd [5, 9] was ≥ 24.6 µM.

For ACQEAVKLK, the Kd [4, 8] was ≥ 77.7 µM.

RMLINRFTMR was tested, and the Kd [1, 13] was 0.0143 µM, the Kd [4, 13] was 0.162 µM and the Kd [5, 13] was 0.0866 µM.

QFVDINRNNK was tested, and the Kd [1, 9] was 0.00452 µM, the Kd [2, 9] was 0.171 µM and the Kd [3, 9] was 0.662 µM. For the same sequence, the Kd [4, 9] was 0.763 µM and the Kd [5, 9] was 1.88 µM.

DIETAIRAGY was tested, and the Kd [1, 9] was 19.4 µM, the Kd [2, 9] was 1.24 µM and the Kd [3, 9] was 5.72 µM. The Kd [4, 9] was 6.79 µM and the Kd [5, 9] was 2.48 µM.

For VSTVQQLTK, the Kd [3, 11] was 0.604 µM.

Sequence KAPNVISSK has a Kd [1, 9] of 0.175 µM, a Kd [2, 9] of 0.155 µM and a Kd [3, 9] of 0.00702 µM. For the same sequence, the Kd [4, 9] was ≥ 22.6 µM and the Kd [5, 9] was 0.00189 µM.

NKKPRICTR showed a Kd [4, 14] of 2.97 µM.

For LSYVIGLLPH, the Kd [1, 15] was 8.94 µM, the Kd [2, 15] was ≥ 70.1 µM and the Kd [3, 15] was ≥ 35.8 µM. For the same sequence, the Kd [4, 15] was ≥ 70 µM and the Kd [5, 15] was 2.26 µM.

KVILSEISFH was tested, and the Kd [1, 16] was 2.07 µM, the Kd [2, 16] was 12.7 µM and the Kd [3, 16] was 0.812 µM. The Kd [4, 16] was 16.4 µM and the Kd [5, 16] was 1.37 µM.

For RLLHCVTESY, the Kd [1, 9] was 0.0313 µM, the Kd [2, 9] was 0.598 µM and the Kd [3, 9] was 0.0402 µM. It also gave a Kd [4, 9] of 6.94 µM and a Kd [5, 9] of 0.0727 µM.

VLLGSFGCK was tested, and the Kd [5, 14] was 0.0119 µM.

Work on VFKDSFLRK yielded a Kd [1, 9] of 0.154 µM, a Kd [2, 9] of 0.776 µM and a Kd [3, 9] of 0.216 µM. It also gave a Kd [4, 9] of 1.88 µM and a Kd [5, 9] of 0.322 µM.

Reference: the Immune Epitope Database (IEDB)
